According to CN110938146A (UNIV HUAZHONG AGRICULTURAL, dated 2020):

Molecular target: T1, TIM-3重组蛋白 (human, UniProt Q8TDQ0 22-200, limits assumed)
T1 construct: also called 重组TIM-3蛋白; 固定化TIM-3
T1 sequence (looked up): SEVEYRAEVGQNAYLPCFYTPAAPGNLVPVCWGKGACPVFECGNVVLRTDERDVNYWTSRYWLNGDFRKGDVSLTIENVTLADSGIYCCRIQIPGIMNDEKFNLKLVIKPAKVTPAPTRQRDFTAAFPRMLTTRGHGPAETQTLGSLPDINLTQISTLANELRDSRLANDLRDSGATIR
Assay: ELISA: TIM-3 coated at 5 ug/mL, biotinylated sdAb titrated 1:2 from 200 ug/mL, HRP-streptavidin, Prism fit

Kd: 278 nM
B1: TIM-3-CX153 (VHH)
VHH: QSMEESGGRLVKPDETLTLTCTVSGFSLSSYSMIWVRQAPGKGLEWIGIIGTTGNTYYASWAKGRFTISKTSTTVDLKMTSLTSEDTATYFCARYYADGVFDLWGQGTLVTVSS
notes: Expressed in E. coli BL21 from pET28 and purified on a His nickel column; also called TIM-3-CX153-HisFlag; TIM-3-CX153单抗
